Results from patent publication US12723255B2, “Herbicide tolerance genes and methods of use thereof” (priority 2014, dated 2026).
Substitutions are numbered along the chain they refer to. Values joined by “and” are separate entries in the source; they are usually repeats but may differ in a detail not shown here. Equal entries are not always repeated.

B1: MON-HT55: engineered oxygenase protein, amino acid sequence SEQ ID NO:11 (protein)
chain: MHAALSPLSQRFERIAVQPLTGVLGAEITGVDLREPLDDSTWNEILDAFHTYQVIYFPGQAITNEQHIAFSRRFGPVDPVPLLKSIEGYPEVQMIRREANESGRVIGENWHTDSTFLDAPPAAVVMYAKEIPPYGGDTLFTSMYTAWETLSPTMQATIEGLNVVHSATRVFGSLYQAQNRRFSNTSVKVMDVDAGDRETVHPLVVTHPETGRKGLYVNQVYCQRIEGMSEKESEPLLSFLFAHATKPEFTCRVRWQEGDVLVWDNLCTQHYAVPDYAGKFRYLTRTTVGGVRPAR
B2: MON-HT3: engineered oxygenase protein, amino acid sequence SEQ ID NO:22 (protein)
chain: B1 chain with E108D, N109D, I131V, T141A, D259Q, Y271F
B3: MON-HT4: engineered oxygenase protein, amino acid sequence SEQ ID NO:25 (protein)
chain: MHAALTPLTNKYRFIDVQPLTGVLGAEITGVDLREPLDDSTWNEILDAFHTYQVIYFPGQAITNEQHIAFSRRFGPVDPVPLLKSIEGYPEVQMIRREANESGRVIGDDWHTDSTFLDAPPAAVVMYAREVPPYGGDTGFLSMYTAWETLSPTMQATIEGLNVVHSATRVFGSLYQAQNRRYSNTSVKVMDVDAGDRETVHPLVVSHPVTGRRALYCNQVYCQRIEGMTDAESKSLLQFLYEHATKFDFTCRVRWKKDQVLVWDNLCTMHRAVPDYAGKFRYLTRTTVAGDKPSR
B4: MON-HT7: engineered oxygenase protein, amino acid sequence SEQ ID NO:34 (protein)
chain: MHAALTPLTNKYRFIDVQPLTGVLGAEITGVDLREPLDDSTWNEILDAFHTYQVIYFPGQAITNEQHIAFSRRFGPVDPVPLLKSIEGYPEVQMIRREANESGRVIGDDWHADSTFLDAPPAAVVMRAIEVPEYGGDTGFLSMYSAWETLSPTMQATIEGLNVVHSATKVFGSLYQATNWRFSNTSVKVMDVDAGDRETVHPLVVTHPVTGRRALYCNQVYCQKIQGMTDAESKSLLQFLYEHATKFDFTCRVRWKKDQVLVWDNLCTMHRSVPDYAGKFRYLTRTTVAGDKPSR
B5: MON-HT5: engineered oxygenase protein, amino acid sequence SEQ ID NO:28 (protein)
chain: B4 chain with A112T, S272A

System: not given
Assay: not given
Type: physicochemical
Conditions: buffer
Procedure: A protein melting analysis was also conducted. For the protein melting determinations, purified enzyme was added to 96-well microtiter plates in standard storage buffer (30 mM Tris pH7.5, 150 mM NaCl) with or without 50 uM Fe2+ and 1.0 mM aKG. Protein unfolding was then detected with SYPRO® orange protein gel stain (Invitrogen™ catalog #S6651, Life Technologies, Grand Island, NY) in a BioRad CFX96™ Real time PCR machine (BioRad, Hercules, CA) with readings taken between 10° C. to 95° C. in 0.5° C. steps. […] In contrast, 50 uM Fe2+ and 1.0 mM aKG had little effect on the stability of any of the engineered proteins. MON-HT55, MON-HT3, MON-HT4, MON-HT6, and MON-HT10 had melting temperatures in the range of 41° C. to 48° C., which is below the melting temperature of the wild-type enzyme. MON-HT1, MON-HT2, MON-HT5, MON-HT7, MON-HT8, and MON-HT9 had melting temperatures between 58° C. and 67° C., which is 8° C. to 17° C. higher than the wild-type enzyme. For MON-HT7 and MON-HT1, the difference in melting point was 11° C. in buffer without Fe2+ and aKG and 8° C. in buffer with Fe2+ and aKG. This was surprising since there are only four amino acid differences between the two enzymes.
A protein melting analysis was conducted as detailed above. The melting temperatures of MON-HT13, MON-HT15, and MON-HT17 was similar to the melting temperature of MON-HT1 with T1/2 in buffer in the range of 55-58° C., and with T1/2 in buffer plus Fe2+ and aKG in the range of 60-62° C.
In the case of B1, the “T1/2, temperature where 50% of the protein was unfolded, Buffer plus Fe2+ and aKG” value is reported as 41 °C. For B2, the “T1/2, temperature where 50% of the protein was unfolded, Buffer plus Fe2+ and aKG” value was 48 °C. For B3, the “T1/2, temperature where 50% of the protein was unfolded, Buffer plus Fe2+ and aKG” value was 44 °C. With B4 the “T1/2, temperature where 50% of the protein was unfolded, Buffer plus Fe2+ and aKG” value was 67 °C. With B5 the “T1/2, temperature where 50% of the protein was unfolded, Buffer plus Fe2+ and aKG” value was 61 °C.

Same assay, conditions: buffer, pH 7.5
In the case of B1, the “T1/2, temperature where 50% of the protein was unfolded, Buffer” value is reported as 41 °C. In the case of B2, the “T1/2, temperature where 50% of the protein was unfolded, Buffer” value is reported as 46 °C. In the case of B3, the “T1/2, temperature where 50% of the protein was unfolded, Buffer” value is reported as 43 °C. For B4, the “T1/2, temperature where 50% of the protein was unfolded, Buffer” value was 67 °C. With B5 the “T1/2, temperature where 50% of the protein was unfolded, Buffer” value was 60 °C.

System: not listed separately
Assay: enzyme activity assay at 23° C. with purified enzyme
Type: biochemical
Conditions: haloxyfop, fenoxaprop, fluazifop and dichlorprop
Procedure: The enzyme activity of MON-HT protein variants with haloxyfop, fenoxaprop, fluazifop, and dichlorprop as substrates was determined using the enzyme activity assay conducted at 23° C. with purified enzyme. The activity was recorded as the maximum activity as a percentage of the wild-type enzyme's activity, which was set at 100%.
In the case of B1, the “maximum activities for all four substrates compared with the wild-type enzyme” value is reported as “lower than, or equal to”. For B2, the “maximum activities for all four substrates compared with the wild-type enzyme” value was “lower than, or equal to”. In the case of B3, the “maximum activities for all four substrates compared with the wild-type enzyme” value is reported as “lower than, or equal to”. With B5 the “maximum activities for all four substrates compared with the wild-type enzyme” value was “lower than, or equal to”.

Same assay, conditions: purified enzyme, wild-type set at 100%
For B1, the “maximum activity as a percentage of the wild-type enzyme's activity, Haloxyfop” value (from here on “maximum activity as a percentage … Haloxyfop”) was 58%. In the case of B2, the “maximum activity as a percentage … Haloxyfop” value is reported as 67%. In the case of B3, the “maximum activity as a percentage … Haloxyfop” value is reported as 49%. For B5, the “maximum activity as a percentage … Haloxyfop” value was 100%.

Same assay, conditions: wild-type set at 100%
In the case of B1, the “maximum activity as a percentage of the wild-type enzyme's activity, Dichlorprop” value (from here on “maximum activity as a percentage … Dichlorprop”) is reported as 31%, the “maximum activity as a percentage of the wild-type enzyme's activity, Fenoxaprop” value (“maximum activity as a percentage … Fenoxaprop” below) is reported as 34% and the “maximum activity as a percentage of the wild-type enzyme's activity, Fluazifop” value (from here on “maximum activity as a percentage … Fluazifop”) is reported as 38%. In the case of B2, the “maximum activity as a percentage … Dichlorprop” value is reported as 100%, the “maximum activity as a percentage … Fenoxaprop” value is reported as 83% and the “maximum activity as a percentage … Fluazifop” value is reported as 60%. For B3, the “maximum activity as a percentage … Dichlorprop” value was 39%, the “maximum activity as a percentage … Fenoxaprop” value was 53% and the “maximum activity as a percentage … Fluazifop” value was 52%. For B5, the “maximum activity as a percentage … Dichlorprop” value was 36%, the “maximum activity as a percentage … Fenoxaprop” value was 92% and the “maximum activity as a percentage … Fluazifop” value was 46%.

System: F1 hybrid maize plants
Assay: efficacy field trial for 2,4-D tolerance
Type: in vivo
Conditions: scale 0 to 100; 2 lb ae/acre at VE-V2, V4, V8; with CTP unless label says no CTP
Procedure: Separate trait efficacy field trials for quizalofop-P and 2,4-D were conducted at two locations cach with F1 hybrid transgenic plants produced by crossing an inbred plant containing maize event MON89034 with an R1 plant containing MON-HT55 (with a CTP), MON-HTI (with or without a CTP), MON-HT2 (with or without a CTP), MON-HT3 (with a CTP), MON-HT4 (with a CTP), MON-HT5 (with a CTP), MON-HT6 (with a CTP), or MON-HT7 (with a CTP). Transgenic F1 hybrid plants containing maize events NK603×MON89034 were used for comparison as a control.
In the efficacy field trial for 2,4-D tolerance, one of four herbicide treatments was used: (1) 2,4-D amine at 2 lb ac/acre (2×) plus 0.25% v/v non-ionic surfactant (NIS) applied to VE to V2 followed by V4 followed by V8; (2) 2,4-D amine at 4 lb ac/acre (4×) plus 0.25% v/v NIS applied to VE to V2 followed by V4 followed by V8; (3) 2,4-D amine at 8 lb ac/acre (8×) plus 0.25% v/v NIS applied to VE to V2 followed by V4 followed by V8 maize; or (4) 2,4-D amine at 16 lb ac/acre (16×) plus 0.25% v/v NIS applied to VE to V2 followed by V4 followed by V8. Plots were visually rated as above. Tables 14 and 15 show the average injury ratings after herbicide application at V4 or V8 growth stage, respectively.
In the case of B1, the “average injury rating, V8 Growth Stage, 2x 2,4-D” value is reported as 15.0 and 12.5 and 16.3 and 14.4 and 11.3. With B2 the “average injury rating, V4 Growth Stage, 2x 2,4-D” value was 3.8 and the “average injury rating, V8 Growth Stage, 2x 2,4-D” value was 5.5. With B3 the “average injury rating, V4 Growth Stage, 2x 2,4-D” value was 0.0 and the “average injury rating, V8 Growth Stage, 2x 2,4-D” value was 2.0. For B4, the “average injury rating, V4 Growth Stage, 2x 2,4-D” value was 1.3 and the “average injury rating, V8 Growth Stage, 2x 2,4-D” value was 2.0. For B5, the “average injury rating, V4 Growth Stage, 2x 2,4-D” value was 2.5 and the “average injury rating, V8 Growth Stage, 2x 2,4-D” value was 3.3.

Same assay, conditions: scale 0 to 100; 4 lb ae/acre at VE-V2, V4, V8; with CTP unless label says no CTP
With B1 the “average injury rating, V4 Growth Stage, 4x 2,4-D” value was 31.3 and 22.5 and 41.3 and 23.1 and 30.0. In the case of B2, the “average injury rating, V4 Growth Stage, 4x 2,4-D” value is reported as 6.3 and the “average injury rating, V8 Growth Stage, 4x 2,4-D” value is reported as 5.5. For B3, the “average injury rating, V4 Growth Stage, 4x 2,4-D” value was 1.3 and the “average injury rating, V8 Growth Stage, 4x 2,4-D” value was 8.8. For B4, the “average injury rating, V4 Growth Stage, 4x 2,4-D” value was 1.3 and the “average injury rating, V8 Growth Stage, 4x 2,4-D” value was 2.8. With B5 the “average injury rating, V4 Growth Stage, 4x 2,4-D” value was 2.5 and the “average injury rating, V8 Growth Stage, 4x 2,4-D” value was 4.0.

Same assay, conditions: scale 0 to 100; 8 lb ae/acre at VE-V2, V4, V8; with CTP unless label says no CTP
With B1 the “average injury rating, V4 Growth Stage, 8x 2,4-D” value was 45.0 and 53.8 and 43.8 and 50.0 and 58.8 and 48.8 and the “average injury rating, V8 Growth Stage, 8x 2,4-D” value was 33.8 and 36.3 and 39.4 and 30.0 and 35.0. For B2, the “average injury rating, V4 Growth Stage, 8x 2,4-D” value was 8.8 and the “average injury rating, V8 Growth Stage, 8x 2,4-D” value was 11.3. In the case of B3, the “average injury rating, V4 Growth Stage, 8x 2,4-D” value is reported as 8.8 and the “average injury rating, V8 Growth Stage, 8x 2,4-D” value is reported as 12.5. For B4, the “average injury rating, V4 Growth Stage, 8x 2,4-D” value was 5.8 and the “average injury rating, V8 Growth Stage, 8x 2,4-D” value was 9.3. For B5, the “average injury rating, V4 Growth Stage, 8x 2,4-D” value was 7.5 and the “average injury rating, V8 Growth Stage, 8x 2,4-D” value was 10.0.

Same assay, conditions: scale 0 to 100; 16 lb ae/acre at VE-V2, V4, V8; with CTP unless label says no CTP
In the case of B1, the “average injury rating, V4 Growth Stage, 16x 2,4-D” value is reported as 61.3 and 63.8 and 66.3 and 55.0 and 53.8 and 52.5 and the “average injury rating, V8 Growth Stage, 16x 2,4-D” value is reported as 57.5 and 52.5 and 55.0 and 56.9 and 47.5. With B2 the “average injury rating, V4 Growth Stage, 16x 2,4-D” value was 11.3 and the “average injury rating, V8 Growth Stage, 16x 2,4-D” value was 13.8. In the case of B3, the “average injury rating, V4 Growth Stage, 16x 2,4-D” value is reported as 18.8 and the “average injury rating, V8 Growth Stage, 16x 2,4-D” value is reported as 21.3. For B4, the “average injury rating, V4 Growth Stage, 16x 2,4-D” value was 12.5 and the “average injury rating, V8 Growth Stage, 16x 2,4-D” value was 20.0. For B5, the “average injury rating, V4 Growth Stage, 16x 2,4-D” value was 17.5 and the “average injury rating, V8 Growth Stage, 16x 2,4-D” value was 21.3.
